For the assay, the target named is T1, human glucose-dependent insulinotropic polypeptide (GIP) receptor (human), P48546.
T1 chain: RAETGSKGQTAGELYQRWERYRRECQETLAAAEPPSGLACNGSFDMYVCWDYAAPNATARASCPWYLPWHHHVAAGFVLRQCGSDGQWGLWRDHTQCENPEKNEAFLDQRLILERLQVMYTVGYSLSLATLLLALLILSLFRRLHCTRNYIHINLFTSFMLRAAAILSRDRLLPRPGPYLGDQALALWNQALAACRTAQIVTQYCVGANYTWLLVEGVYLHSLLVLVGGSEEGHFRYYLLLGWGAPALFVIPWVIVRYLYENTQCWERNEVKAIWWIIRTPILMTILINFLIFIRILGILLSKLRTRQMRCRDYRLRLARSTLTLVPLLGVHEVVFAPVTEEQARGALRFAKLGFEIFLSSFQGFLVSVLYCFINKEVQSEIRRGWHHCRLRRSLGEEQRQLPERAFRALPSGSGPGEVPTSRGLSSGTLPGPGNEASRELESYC
Put plainly: SPA, displacement of [125I]-GIP from hGIPR membranes, 0.1% bacitracin. (Displacement assays read how much labelled ligand stays bound in the presence of the test substance.)

One may read the Ki as the dissociation constant of the complex between target and ligand, obtained from inhibition or displacement. A high value points to weaker binding.

Starred links: 1 amine or outer side, 2 acyl side, 3 side chain; linkers in the order of their positions; H or OH if unused. Non-standard residues stand in square brackets, D forms with d. Groups on a side chain read outwards from the residue. No end group written: not given here. *: point of attachment. C20 diacid = O=C(O)CCCCCCCCCCCCCCCCCCC(=O)*; γGlu = O=C(O)[C@H](CCC(=O)[*:2])N[*:1]; 4Pal = N[C@@H](Cc1ccncc1)C(=O)O; αMeL = CC(C)C[C@](C)(N)C(=O)O; Orn = NCCC[C@H](N)C(=O)O; AEEA = NCCOCCOCC(=O)O; Aib = CC(C)(N)C(=O)O

B1: Example 108 (peptide)
peptide: Y[Aib]EGTFISDYSI[αMeL]LD[Orn]IHQ[Aib]DFVE[4Pal]K([AEEA-AEEA-γGlu-C20 diacid])LEGGPSSGAPPPS-NH2
modifications: N-terminus assumed
SMILES: CC[C@H](C)[C@H](NC(=O)[C@H](CCCN)NC(=O)[C@H](CC(=O)O)NC(=O)[C@H](CC(C)C)NC(=O)[C@](C)(CC(C)C)NC(=O)[C@@H](NC(=O)[C@H](CO)NC(=O)[C@H](Cc1ccc(O)cc1)NC(=O)[C@H](CC(=O)O)NC(=O)[C@H](CO)NC(=O)[C@@H](NC(=O)[C@H](Cc1ccccc1)NC(=O)[C@@H](NC(=O)CNC(=O)[C@H](CCC(=O)O)NC(=O)C(C)(C)NC(=O)[C@@H](N)Cc1ccc(O)cc1)[C@@H](C)O)[C@@H](C)CC)[C@@H](C)CC)C(=O)N[C@@H](Cc1c[nH]cn1)C(=O)N[C@@H](CCC(N)=O)C(=O)NC(C)(C)C(=O)N[C@@H](CC(=O)O)C(=O)N[C@@H](Cc1ccccc1)C(=O)N[C@H](C(=O)N[C@@H](CCC(=O)O)C(=O)N[C@@H](Cc1ccncc1)C(=O)N[C@@H](CCCCNC(=O)COCCOCCNC(=O)COCCOCCNC(=O)CC[C@H](NC(=O)CCCCCCCCCCCCCCCCCCC(=O)O)C(=O)O)C(=O)N[C@@H](CC(C)C)C(=O)N[C@@H](CCC(=O)O)C(=O)NCC(=O)NCC(=O)N1CCC[C@H]1C(=O)N[C@@H](CO)C(=O)N[C@@H](CO)C(=O)NCC(=O)N[C@@H](C)C(=O)N1CCC[C@H]1C(=O)N1CCC[C@H]1C(=O)N1CCC[C@H]1C(=O)N[C@@H](CO)C(N)=O)C(C)C
The molecule B1 returned a Ki of 0.134 nM.

B2: Example 109 (peptide)
peptide: Y[Aib]EGTFISDYSI[αMeL]LDKIHQ[Aib]DFVE[4Pal]K([AEEA-AEEA-γGlu-C20 diacid])LEGGPSSGAPPPS-NH2
modifications: N-terminus assumed
SMILES: CC[C@H](C)[C@H](NC(=O)[C@H](CCCCN)NC(=O)[C@H](CC(=O)O)NC(=O)[C@H](CC(C)C)NC(=O)[C@](C)(CC(C)C)NC(=O)[C@@H](NC(=O)[C@H](CO)NC(=O)[C@H](Cc1ccc(O)cc1)NC(=O)[C@H](CC(=O)O)NC(=O)[C@H](CO)NC(=O)[C@@H](NC(=O)[C@H](Cc1ccccc1)NC(=O)[C@@H](NC(=O)CNC(=O)[C@H](CCC(=O)O)NC(=O)C(C)(C)NC(=O)[C@@H](N)Cc1ccc(O)cc1)[C@@H](C)O)[C@@H](C)CC)[C@@H](C)CC)C(=O)N[C@@H](Cc1c[nH]cn1)C(=O)N[C@@H](CCC(N)=O)C(=O)NC(C)(C)C(=O)N[C@@H](CC(=O)O)C(=O)N[C@@H](Cc1ccccc1)C(=O)N[C@H](C(=O)N[C@@H](CCC(=O)O)C(=O)N[C@@H](Cc1ccncc1)C(=O)N[C@@H](CCCCNC(=O)COCCOCCNC(=O)COCCOCCNC(=O)CC[C@H](NC(=O)CCCCCCCCCCCCCCCCCCC(=O)O)C(=O)O)C(=O)N[C@@H](CC(C)C)C(=O)N[C@@H](CCC(=O)O)C(=O)NCC(=O)NCC(=O)N1CCC[C@H]1C(=O)N[C@@H](CO)C(=O)N[C@@H](CO)C(=O)NCC(=O)N[C@@H](C)C(=O)N1CCC[C@H]1C(=O)N1CCC[C@H]1C(=O)N1CCC[C@H]1C(=O)N[C@@H](CO)C(N)=O)C(C)C
B2 returned a Ki of 0.117 nM.

Values taken from patent US20210032299A1.
